From patent publication US20200317768A1 (published 2020)

Key:
Assay in all cases: SPR (BIACORE), antibody captured, FcγR analyte
[1] = target: T1, human FcγRIIaH extracellular domain, C-terminal His-tag (human, UniProt P12318 34-217)
T1 construct: also called human FcγRIIa (type H); FcgRIIaH; not shown: His-tag added to C-terminus
T1 sequence: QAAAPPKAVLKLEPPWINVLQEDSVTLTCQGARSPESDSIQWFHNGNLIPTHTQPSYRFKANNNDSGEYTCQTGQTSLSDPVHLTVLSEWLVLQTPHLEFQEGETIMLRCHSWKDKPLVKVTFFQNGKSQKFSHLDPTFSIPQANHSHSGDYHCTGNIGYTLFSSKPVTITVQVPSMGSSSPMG

[2] = target: T2, cynomolgus monkey FcγRIIa2 extracellular domain, C-terminal His-tag (cynomolgus monkey)
T2 construct: also called cyno FcγRIIa2; cynoFcgRIIa2; not shown: His-tag added to C-terminus
T2 chain: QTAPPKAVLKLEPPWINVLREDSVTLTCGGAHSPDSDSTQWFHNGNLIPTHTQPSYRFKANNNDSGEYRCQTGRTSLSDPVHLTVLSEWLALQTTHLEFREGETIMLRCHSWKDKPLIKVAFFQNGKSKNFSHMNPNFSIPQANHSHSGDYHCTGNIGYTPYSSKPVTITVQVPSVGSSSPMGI

[3] = target: T3, cynomolgus monkey FcγRIIa1 extracellular domain, C-terminal His-tag (cynomolgus monkey)
T3 construct: also called cyno FcγRIIa1; cynoFcgRIIa1; not shown: His-tag added to C-terminus
T3 chain: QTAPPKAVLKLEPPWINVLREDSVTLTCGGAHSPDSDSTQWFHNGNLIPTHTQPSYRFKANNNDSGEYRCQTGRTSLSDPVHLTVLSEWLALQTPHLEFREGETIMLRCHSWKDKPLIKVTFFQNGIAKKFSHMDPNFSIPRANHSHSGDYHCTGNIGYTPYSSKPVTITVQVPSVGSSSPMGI

[4] = target: T4, human FcγRIIIaV extracellular domain, C-terminal His-tag (human, UniProt P08637 17-208)
T4 construct: also called FcgRIIIaV; not shown: His-tag added to C-terminus
T4 sequence (P08637 17-208 F176V): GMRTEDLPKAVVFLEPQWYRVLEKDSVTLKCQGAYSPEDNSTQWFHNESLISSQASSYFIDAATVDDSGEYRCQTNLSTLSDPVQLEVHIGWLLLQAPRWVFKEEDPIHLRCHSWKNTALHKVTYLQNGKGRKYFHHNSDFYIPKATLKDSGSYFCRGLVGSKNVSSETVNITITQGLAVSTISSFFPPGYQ

[5] = target: T5, cynomolgus monkey FcγRIIa3 extracellular domain, C-terminal His-tag (cynomolgus monkey)
T5 construct: also called cyno FcγRIIa3; cynoFcgRIIa3; not shown: His-tag added to C-terminus
T5 chain: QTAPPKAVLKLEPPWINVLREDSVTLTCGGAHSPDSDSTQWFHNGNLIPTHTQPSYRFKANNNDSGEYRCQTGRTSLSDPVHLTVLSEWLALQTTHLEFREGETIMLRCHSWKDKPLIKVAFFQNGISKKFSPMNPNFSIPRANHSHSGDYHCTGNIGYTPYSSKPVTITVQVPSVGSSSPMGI

Kd [1]: 0.89 µM | Kd [2]: 4.7 µM | Kd [3]: 4.8 µM | Kd [4]: 0.62 µM | Kd [5]: 8.6 µM
B1: MS_M103205H795-SG1/M103202L889-SK1 (antibody, human IgG1, kappa)
heavy: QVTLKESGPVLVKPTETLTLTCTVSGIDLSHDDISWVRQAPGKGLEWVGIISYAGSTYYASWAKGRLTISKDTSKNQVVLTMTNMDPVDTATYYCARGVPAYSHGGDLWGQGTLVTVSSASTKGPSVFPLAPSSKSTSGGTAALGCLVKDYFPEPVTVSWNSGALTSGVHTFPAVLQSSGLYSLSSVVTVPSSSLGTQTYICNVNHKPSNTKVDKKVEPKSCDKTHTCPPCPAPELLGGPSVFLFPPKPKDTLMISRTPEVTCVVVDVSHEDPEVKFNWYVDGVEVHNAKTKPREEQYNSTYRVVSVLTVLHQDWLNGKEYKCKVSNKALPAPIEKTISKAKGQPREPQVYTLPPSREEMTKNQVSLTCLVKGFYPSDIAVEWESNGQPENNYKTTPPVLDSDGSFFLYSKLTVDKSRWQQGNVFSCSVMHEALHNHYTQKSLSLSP
light: DIVMTQSPATLSLSPGERATLSCTSSQSVYHANWLSWFQQKPGQPPKLLIYWASTLAYGVPSRFSGSGSGTDFTLTISSLQPEDAATYYCAGGYGGGRYAFGQGTKVEIKRTVAAPSVFIFPPSDEQLKSGTASVVCLLNNFYPREAKVQWKVDNALQSGNSQESVTEQDSKDSTYSLSSTLTLSKADYEKHKVYACEVTHQGLSSPVTKSFNRGEC
notes: Parent antibody with SG1 human heavy chain constant region; also called MS1032LO06-SG1
